Test results: patent US7569390 (MEDICAL RESEARCH COUNCIL, dated 2009)

Target: T1, Syk/BTM116 (LexA-Syk bait) (E. coli, UniProt P48025 1-629)
T1 construct: also called pLexA-Syk; not shown: E. coli LexA domain of vector pBTM116
Test: yeast two-hybrid (L40), β-galactosidase assay; FIG. 2B row 2, empty pVP16 control

T1 sequence (P48025 whole entry, the tested form may be a part): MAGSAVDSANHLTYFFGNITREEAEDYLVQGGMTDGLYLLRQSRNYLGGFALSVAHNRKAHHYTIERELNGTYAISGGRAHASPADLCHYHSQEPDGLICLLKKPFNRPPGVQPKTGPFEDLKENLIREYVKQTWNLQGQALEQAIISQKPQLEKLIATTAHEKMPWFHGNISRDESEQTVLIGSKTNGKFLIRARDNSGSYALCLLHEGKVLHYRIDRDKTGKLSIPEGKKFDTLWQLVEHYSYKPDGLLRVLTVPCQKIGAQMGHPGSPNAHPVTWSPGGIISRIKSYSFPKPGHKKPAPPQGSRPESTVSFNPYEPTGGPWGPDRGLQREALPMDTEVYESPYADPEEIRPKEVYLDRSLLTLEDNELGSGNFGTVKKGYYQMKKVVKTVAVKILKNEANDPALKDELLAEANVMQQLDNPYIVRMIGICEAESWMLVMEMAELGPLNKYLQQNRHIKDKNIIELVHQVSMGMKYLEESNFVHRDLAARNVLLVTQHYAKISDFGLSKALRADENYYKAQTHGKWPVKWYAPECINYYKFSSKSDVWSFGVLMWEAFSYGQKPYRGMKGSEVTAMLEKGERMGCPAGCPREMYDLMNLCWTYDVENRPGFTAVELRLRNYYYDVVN

B1: VP16 vector alone (pVP16, no scFv insert) (other)
chain: STAPPTDVSLGDELHLDGEDVAMAHADALDDFDLDMLGDGDSPGPGFTPHDSAPYGALDMADFEFEQMFTDALGIDEYGG
notes: also called empty pVP16 vector
B1: no binding.
